Assay results published in US20210038737A1.

Legend:
[1] = molecular target: CAL PDZ domain (CALP5-His) (UniProt Q9HD26); assay: direct FP, condition C: 50 nM labeled peptide, CALP5-His titrated
[2] = molecular target: CAL PDZ domain (CALP5-His) (UniProt Q9HD26); assay: FP competition, condition A: probe peptide 26 (50 nM) with 100 nM CALP5-His; competitor titrated
[3] = molecular target: CAL PDZ domain (CALP5-His) (UniProt Q9HD26); assay: FP competition
[4] = molecular target: CAL PDZ domain (CALP5-His) (UniProt Q9HD26); assay: FP competition, condition B: probe FAM-…-OH (100 nM) with 500 nM CALP5-His; competitor titrated
[5] = molecular target: CAL PDZ domain (CALP5-His) (UniProt Q9HD26); assay: direct FP: 50 nM FITC-labeled peptide, PDZ domain titrated
[6] = molecular target: CAL PDZ domain (CALP5-His) (UniProt Q9HD26); assay: direct FP, ratio of KD values
[7] = molecular target: CAL PDZ domain (CALP5-His) (UniProt Q9HD26); assay: direct FP of FITC-labeled peptides
NHERF1-PDZ1 domain = NHERF1-PDZ1 domain (UniProt O14745); assay: direct FP: 50 nM FITC-labeled peptide, PDZ domain titrated
NHERF2-PDZ1 domain = NHERF2-PDZ1 domain (UniProt Q15599); assay: as above
NHERF2-PDZ2 domain = NHERF2-PDZ2 domain (UniProt Q15599); assay: as above
NHERF2-PDZ2 domain, sequence (Q15599 150-230 limits assumed): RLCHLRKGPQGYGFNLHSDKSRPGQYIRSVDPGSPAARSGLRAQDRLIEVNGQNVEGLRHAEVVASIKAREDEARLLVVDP

NHERF2-PDZ1 domain, sequence (Q15599 11-90 limits assumed): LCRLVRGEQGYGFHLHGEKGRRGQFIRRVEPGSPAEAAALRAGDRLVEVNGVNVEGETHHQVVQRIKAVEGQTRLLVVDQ
NHERF1-PDZ1 domain, sequence (O14745 14-94 limits assumed): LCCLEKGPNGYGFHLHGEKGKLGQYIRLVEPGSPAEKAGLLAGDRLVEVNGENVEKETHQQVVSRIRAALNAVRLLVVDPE

Question: How did the Kd [1] turn out when “peptide 26: FAM-miniPEG-Cys-(D-Arg)-Arg-Arg-(2-Nal)-(Bta)-Pen-Tle-Thr-Arg-Tle-OH” was run?
Answer: The Kd was 49 nM.

Question: “peptide 22: Ac-Cys-Arg-(D-Arg)-Arg-(2-Nal)-Trp-Gln-Pen-Thr-Arg-Tle-OH” was tested. Which IC50 [2] did it give?
Answer: Its IC50 is 401 nM.

Question: What does the source list for “peptide 24: Ac-Cys-(D-Arg)-Arg-Arg-(2-Nal)-Trp-Pen-Tle-Thr-Arg-Tle-OH”?
Answer: fold decrease in CAL binding (vs parent, printed as peptide 22) [3]: 2 fold; IC50 [4]: 380 nM

Question: “peptide 25: Ac-Cys-(D-Arg)-Arg-Arg-(2-Nal)-(Bta)-Pen-Tle-Thr-Arg-Tle-OH” was tested. Which fold more potent than peptide 24 in CAL binding [3] did it give?
Answer: The fold more potent than peptide 24 in CAL binding was 1.5 fold.

Question: And the IC50 [4]?
Answer: Its IC50 is 235 nM.

Question: For “peptide 21: Ac-Cys-(D-Arg)-(D-Arg)-Arg-(2-Nal)-Trp-Gln-Pen-Thr-Arg-Tle-OH”, which IC50 [4] is on record?
Answer: The IC50 was 270 nM.

Question: For “peptide 23: FAM-miniPEG-Cys-(D-Arg)-Arg-Arg-(2-Nal)-Trp-Pro-Pen-Thr-Arg-Tle-OH”, which Kd [1] is on record?
Answer: The Kd was 168 nM.

Question: “peptide 27-FITC: FITC-miniPEG-Cys-(D-Arg)-Arg-Arg-Nal-Trp-Pro-Pen-Thr-Arg-Tle-OH” was tested. Which Kd [5] did it give?
Answer: Its Kd is 179 nM.

Question: For “peptide 29-FITC: FITC-miniPEG-Cys-(D-Arg)-Arg-Arg-Nal-Bta-Pip-Pen-Thr-Arg-Tle-OH”, which fold selectivity for CAL PDZ over NHERF1/2 PDZ domains [6] is on record?
Answer: Its fold selectivity for CAL PDZ over NHERF1/2 PDZ domains is > 130 fold.

Question: And the fold improvement of CAL PDZ-binding affinity (Pip for Pro, vs peptide 28) [7]?
Answer: Its fold improvement of CAL PDZ-binding affinity (Pip for Pro, vs peptide 28) is 15 fold.

Question: And the Kd [5]?
Answer: The Kd was 6 nM.

Question: What about the Kd (NHERF1-PDZ1 domain) of the same substance?
Answer: The Kd was 780 nM.

Question: What about the Kd (NHERF2-PDZ1 domain) of the same substance?
Answer: Its Kd is 1370 nM.

Question: What about the Kd (NHERF2-PDZ2 domain) of the same substance?
Answer: Its Kd is 7480 nM.

Question: “peptide 28-FITC: FITC-miniPEG-Cys-(D-Arg)-Arg-Arg-Nal-Bta-Pro-Pen-Thr-Arg-Tle-OH” was tested. Which Kd [5] did it give?
Answer: Its Kd is 87 nM.

Question: For “peptide 20: Ac-Cys-(D-Arg)-Arg-Arg-(2-Nal)-Trp-Gln-Pen-Thr-Arg-Tle-OH”, which IC50 [4] is on record?
Answer: The IC50 was 165 nM.
